The data set deals with the molecule itself. As to the kind of experiment: cryo-EM structure.

B1: Bat SARS-like coronavirus WIV1 spike protein ectodomain (domain or fragment)
chain: not shown
notes: also called bCoV-WIV1; bat SL-CoV WIV1
As to B1, the stoichiometry N (usually the number of molecules, sites or subunits per partner or assembly) worked out at 3.

The values are drawn from PMC11236199, “Variation in structural motifs within SARS-related coronavirus spike proteins” (PLOS Pathogens, 2024).
